# Assay results from patent US20200262877A1, “ION CHANNEL-BINDING PEPTIDES AND METHODS OF USE THEREOF” (priority 2017, published 2020).
# Key:
# 5HT3a = molecular target: T1, 5HT3a (Homo sapiens, UniProt P46098); assay: Ion channel panel (IonWorks Barracuda): 5HT3a; assay type: cell-based
# T1 construct: host or cells: HEK293 or CHO
# T1 sequence (P46098 whole entry, looked up): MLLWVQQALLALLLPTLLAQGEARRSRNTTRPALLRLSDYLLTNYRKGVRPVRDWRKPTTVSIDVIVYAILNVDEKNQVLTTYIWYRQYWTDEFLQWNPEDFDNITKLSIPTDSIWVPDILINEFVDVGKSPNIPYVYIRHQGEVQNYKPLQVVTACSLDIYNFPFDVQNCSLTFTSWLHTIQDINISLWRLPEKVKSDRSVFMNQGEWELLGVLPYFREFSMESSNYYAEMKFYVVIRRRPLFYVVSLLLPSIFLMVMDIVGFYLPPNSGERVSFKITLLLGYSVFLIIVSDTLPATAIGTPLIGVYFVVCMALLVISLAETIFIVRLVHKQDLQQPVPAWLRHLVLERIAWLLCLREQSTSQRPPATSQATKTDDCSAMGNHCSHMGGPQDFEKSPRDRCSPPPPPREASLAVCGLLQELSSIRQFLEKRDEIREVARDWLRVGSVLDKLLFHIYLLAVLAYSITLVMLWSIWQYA
# Method: (§1) This example describes a method for assaying ion channel activity in cells.
# (§2) Peptides were screened in duplicate at final concentrations of 20 μM and 200 nM, as determined by amino acid analysis, and diluted into HEPES buffered physiological saline (HBPS). HEK293 or CHO cells from the American Type Culture Collection (ATCC) were transfected with the appropriate ion channel before use. HEK293 cells were grown in Dulbecco's Modified Eagle Medium/Nutrient Mixture F-12, and CHO cells were cultured in Ham's F-12 media. All cultures were supplemented with 10% fetal bovine serum, 100 U/ml penicillin G, 100 μg/ml streptomycin sulfate, and the appropriate selection antibiotics. Prior to use, cells were washed twice with Hank's Balanced Salt Solution, and treated with Accutase cell detachment solution (Sigma-Aldrich). Cells were then washed. Peptides and controls were incubated with cells for at least five minutes.
# (§3) Percent inhibition was defined as: (1-(Ipeptide/Icontrol))×100%).
# (§4) Percent values were calculated using the following formula: % activation=(IPeptide/Icontrol)×100%, where IPeptide is the current produced by co-application a peptide with agonist, and Icontrol refers to the current produced by stimulation in control. Control used for each ion channel is the reference compound matched to a particular channel, as illustrated in TABLE 10 below.
# α3β4 = molecular target: T2, α3β4 (Homo sapiens, UniProt P30926+P32297); assay: Ion channel panel (IonWorks Barracuda): α3β4; assay type: cell-based; settings: 100% = no change, <100% = inhibition
# T2 construct: host or cells: HEK293 or CHO
# Method: as §1, §2, §3, §4
# α4β2 = molecular target: T3, α4β2 (Homo sapiens, UniProt P17787+P43681); assay: Ion channel panel (IonWorks Barracuda): α4β2; assay type: cell-based; settings: 100% = no change, <100% = inhibition
# T3 construct: host or cells: HEK293 or CHO
# Method: as §1, §2, §3, §4
# Cav2.1 = molecular target: T4, Cav2.1 (Homo sapiens, UniProt O00555); assay: cell-based; settings: 100% = no change, <100% = inhibition
# T4 construct: host or cells: HEK293 or CHO
# Method: as §1, §2, §3, §4
# Cav2.2 = molecular target: T5, Cav2.2 (Homo sapiens, UniProt Q00975); assay: cell-based; settings: 100% = no change, <100% = inhibition
# T5 construct: host or cells: HEK293 or CHO
# Method: as §1, §2, §3, §4
# Kv2.1 = molecular target: T6, Kv2.1 (Homo sapiens, UniProt Q14721); assay: cell-based; settings: 100% = no change, <100% = inhibition
# T6 construct: host or cells: HEK293 or CHO
# Method: as §1, §2, §3, §4
# GABA = assay: Ion channel panel (IonWorks Barracuda): GABA; assay type: cell-based; settings: 100% = no change, <100% = inhibition
# Method: as §1, §2, §3, §4
# Nav1.5 = Nav1.5 (Homo sapiens, UniProt Q14524); assay: in vitro; settings: 100% = no change; for Activity of Nav1.5 with peptide, expressed as a percentage of the reference compound: peptide at 0.2 μM; for Activity of Nav1.5 with peptide (percentage of the reference compound): peptide at 20 μM
# Sequence of Nav1.5 (Q14524 whole entry): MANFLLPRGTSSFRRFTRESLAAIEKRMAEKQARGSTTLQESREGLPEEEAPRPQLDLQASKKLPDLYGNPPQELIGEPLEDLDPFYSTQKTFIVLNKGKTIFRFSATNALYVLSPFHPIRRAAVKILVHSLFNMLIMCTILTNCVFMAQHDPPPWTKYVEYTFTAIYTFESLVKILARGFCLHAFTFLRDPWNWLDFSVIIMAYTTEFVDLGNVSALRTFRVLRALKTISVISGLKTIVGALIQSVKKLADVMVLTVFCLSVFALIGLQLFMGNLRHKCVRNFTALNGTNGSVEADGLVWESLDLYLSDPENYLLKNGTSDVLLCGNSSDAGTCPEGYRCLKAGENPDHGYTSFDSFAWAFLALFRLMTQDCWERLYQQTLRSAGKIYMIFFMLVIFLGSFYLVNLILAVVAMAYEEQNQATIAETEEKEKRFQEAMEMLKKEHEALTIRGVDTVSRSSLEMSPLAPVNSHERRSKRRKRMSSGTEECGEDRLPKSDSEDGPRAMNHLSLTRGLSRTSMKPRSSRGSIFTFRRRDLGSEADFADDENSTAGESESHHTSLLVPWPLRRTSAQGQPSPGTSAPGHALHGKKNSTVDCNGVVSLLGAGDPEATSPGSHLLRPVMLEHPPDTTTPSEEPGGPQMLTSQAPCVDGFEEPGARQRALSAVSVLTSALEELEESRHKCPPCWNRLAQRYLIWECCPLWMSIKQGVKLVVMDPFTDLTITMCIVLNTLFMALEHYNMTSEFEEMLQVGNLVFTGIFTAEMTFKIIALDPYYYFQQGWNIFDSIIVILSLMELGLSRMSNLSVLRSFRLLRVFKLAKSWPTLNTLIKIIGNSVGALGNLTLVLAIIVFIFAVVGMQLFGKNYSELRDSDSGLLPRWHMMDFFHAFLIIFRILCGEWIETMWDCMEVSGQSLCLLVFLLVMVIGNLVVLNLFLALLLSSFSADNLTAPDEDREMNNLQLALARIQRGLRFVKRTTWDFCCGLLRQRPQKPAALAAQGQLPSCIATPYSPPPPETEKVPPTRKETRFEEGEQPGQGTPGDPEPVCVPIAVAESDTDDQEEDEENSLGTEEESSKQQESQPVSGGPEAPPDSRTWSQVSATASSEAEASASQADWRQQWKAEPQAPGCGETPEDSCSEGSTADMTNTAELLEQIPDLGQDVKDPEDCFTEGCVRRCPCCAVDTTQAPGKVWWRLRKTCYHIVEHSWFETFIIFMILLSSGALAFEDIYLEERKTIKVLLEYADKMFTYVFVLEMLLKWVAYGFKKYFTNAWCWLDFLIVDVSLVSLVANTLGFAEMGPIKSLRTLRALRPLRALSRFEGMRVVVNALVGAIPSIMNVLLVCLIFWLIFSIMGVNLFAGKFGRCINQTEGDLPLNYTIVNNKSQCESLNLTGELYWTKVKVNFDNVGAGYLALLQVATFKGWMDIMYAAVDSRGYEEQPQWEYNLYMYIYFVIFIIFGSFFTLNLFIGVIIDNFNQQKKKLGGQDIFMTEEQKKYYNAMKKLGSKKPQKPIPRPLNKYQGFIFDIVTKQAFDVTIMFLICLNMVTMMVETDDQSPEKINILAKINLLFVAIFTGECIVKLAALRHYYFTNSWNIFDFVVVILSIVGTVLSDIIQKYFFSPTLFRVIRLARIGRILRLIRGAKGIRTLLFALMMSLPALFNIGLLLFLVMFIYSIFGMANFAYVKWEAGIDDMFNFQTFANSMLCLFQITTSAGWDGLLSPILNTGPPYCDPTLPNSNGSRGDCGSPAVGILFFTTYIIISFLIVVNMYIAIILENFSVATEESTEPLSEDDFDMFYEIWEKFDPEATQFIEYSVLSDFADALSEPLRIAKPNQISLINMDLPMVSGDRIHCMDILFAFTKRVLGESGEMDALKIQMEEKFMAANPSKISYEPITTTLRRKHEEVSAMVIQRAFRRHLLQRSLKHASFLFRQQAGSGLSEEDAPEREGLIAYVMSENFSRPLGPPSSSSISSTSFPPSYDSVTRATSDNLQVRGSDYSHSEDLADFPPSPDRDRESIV
# Method: as §1, §2, §3, §4
# hERG = hERG (Homo sapiens, UniProt Q12809); assay: in vitro; settings: 100% = no change, <100% = inhibition
# Method: as §1, §2, §3, §4
# Kir2.1 = molecular target: T7, Kir2.1 (Homo sapiens, UniProt P63252); assay: Ion channel panel (IonWorks Barracuda): Kir2.1; assay type: cell-based; settings: 100% = no change, <100% = inhibition
# T7 construct: host or cells: HEK293 or CHO
# Method: as §1, §2, §3, §4
# Kv1.1 = molecular target: T8, Kv1.1 (Homo sapiens, UniProt Q09470); assay: cell-based; assay type: cell-based; settings: 100% = no change, <100% = inhibition
# T8 construct: host or cells: HEK293 or CHO
# T8 sequence (Q09470 whole entry): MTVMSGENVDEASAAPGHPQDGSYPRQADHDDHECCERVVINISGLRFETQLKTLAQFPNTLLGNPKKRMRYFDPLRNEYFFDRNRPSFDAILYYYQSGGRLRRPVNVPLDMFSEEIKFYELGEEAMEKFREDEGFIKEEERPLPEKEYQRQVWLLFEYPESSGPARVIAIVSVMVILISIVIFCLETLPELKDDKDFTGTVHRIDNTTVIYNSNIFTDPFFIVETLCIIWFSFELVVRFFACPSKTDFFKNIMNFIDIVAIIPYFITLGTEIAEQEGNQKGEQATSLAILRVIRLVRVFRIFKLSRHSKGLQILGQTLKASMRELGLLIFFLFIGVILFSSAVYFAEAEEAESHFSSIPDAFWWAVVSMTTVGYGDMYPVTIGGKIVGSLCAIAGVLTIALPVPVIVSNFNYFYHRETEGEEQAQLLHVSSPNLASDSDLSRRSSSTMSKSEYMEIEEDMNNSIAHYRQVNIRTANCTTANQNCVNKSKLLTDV
# Method: as §1, §2, §3, §4
# Kv1.2 = molecular target: T9, Kv1.2 (Homo sapiens, UniProt P16389); assay: cell-based; assay type: cell-based; settings: 100% = no change, <100% = inhibition
# T9 construct: host or cells: HEK293 or CHO
# T9 sequence (P16389 whole entry): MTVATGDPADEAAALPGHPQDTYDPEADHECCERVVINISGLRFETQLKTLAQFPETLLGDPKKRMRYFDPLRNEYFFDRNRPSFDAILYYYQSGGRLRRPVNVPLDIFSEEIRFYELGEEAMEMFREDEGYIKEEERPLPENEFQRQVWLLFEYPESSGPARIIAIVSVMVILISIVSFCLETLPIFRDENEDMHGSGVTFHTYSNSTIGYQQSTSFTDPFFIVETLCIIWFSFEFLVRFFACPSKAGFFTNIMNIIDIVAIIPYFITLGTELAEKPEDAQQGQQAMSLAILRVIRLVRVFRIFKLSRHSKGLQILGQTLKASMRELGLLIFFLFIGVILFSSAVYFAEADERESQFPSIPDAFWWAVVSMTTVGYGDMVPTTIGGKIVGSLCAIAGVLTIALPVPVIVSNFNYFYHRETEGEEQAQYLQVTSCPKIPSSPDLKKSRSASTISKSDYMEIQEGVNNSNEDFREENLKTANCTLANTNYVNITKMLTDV
# Method: as §1, §2, §3, §4
# Kv1.3 = molecular target: T10, Kv1.3 (Homo sapiens, UniProt P22001); assay: cell-based; assay type: cell-based; settings: 100% = no change, <100% = inhibition
# T10 construct: host or cells: HEK293 or CHO
# Method: as §1, §2, §3, §4
# Nav1.7 = molecular target: T11, Nav1.7 (Homo sapiens, UniProt Q15858); assay: cell-based; assay type: cell-based; settings: 100% = no change; for Activity of Nav1.7 with peptide, expressed as a percentage of the reference compound: peptide at 0.2 μM; for Activity of Nav1.7 with peptide (percentage of the reference compound): peptide at 20 μM
# T11 construct: host or cells: HEK293 or CHO
# T11 sequence (Q15858 whole entry): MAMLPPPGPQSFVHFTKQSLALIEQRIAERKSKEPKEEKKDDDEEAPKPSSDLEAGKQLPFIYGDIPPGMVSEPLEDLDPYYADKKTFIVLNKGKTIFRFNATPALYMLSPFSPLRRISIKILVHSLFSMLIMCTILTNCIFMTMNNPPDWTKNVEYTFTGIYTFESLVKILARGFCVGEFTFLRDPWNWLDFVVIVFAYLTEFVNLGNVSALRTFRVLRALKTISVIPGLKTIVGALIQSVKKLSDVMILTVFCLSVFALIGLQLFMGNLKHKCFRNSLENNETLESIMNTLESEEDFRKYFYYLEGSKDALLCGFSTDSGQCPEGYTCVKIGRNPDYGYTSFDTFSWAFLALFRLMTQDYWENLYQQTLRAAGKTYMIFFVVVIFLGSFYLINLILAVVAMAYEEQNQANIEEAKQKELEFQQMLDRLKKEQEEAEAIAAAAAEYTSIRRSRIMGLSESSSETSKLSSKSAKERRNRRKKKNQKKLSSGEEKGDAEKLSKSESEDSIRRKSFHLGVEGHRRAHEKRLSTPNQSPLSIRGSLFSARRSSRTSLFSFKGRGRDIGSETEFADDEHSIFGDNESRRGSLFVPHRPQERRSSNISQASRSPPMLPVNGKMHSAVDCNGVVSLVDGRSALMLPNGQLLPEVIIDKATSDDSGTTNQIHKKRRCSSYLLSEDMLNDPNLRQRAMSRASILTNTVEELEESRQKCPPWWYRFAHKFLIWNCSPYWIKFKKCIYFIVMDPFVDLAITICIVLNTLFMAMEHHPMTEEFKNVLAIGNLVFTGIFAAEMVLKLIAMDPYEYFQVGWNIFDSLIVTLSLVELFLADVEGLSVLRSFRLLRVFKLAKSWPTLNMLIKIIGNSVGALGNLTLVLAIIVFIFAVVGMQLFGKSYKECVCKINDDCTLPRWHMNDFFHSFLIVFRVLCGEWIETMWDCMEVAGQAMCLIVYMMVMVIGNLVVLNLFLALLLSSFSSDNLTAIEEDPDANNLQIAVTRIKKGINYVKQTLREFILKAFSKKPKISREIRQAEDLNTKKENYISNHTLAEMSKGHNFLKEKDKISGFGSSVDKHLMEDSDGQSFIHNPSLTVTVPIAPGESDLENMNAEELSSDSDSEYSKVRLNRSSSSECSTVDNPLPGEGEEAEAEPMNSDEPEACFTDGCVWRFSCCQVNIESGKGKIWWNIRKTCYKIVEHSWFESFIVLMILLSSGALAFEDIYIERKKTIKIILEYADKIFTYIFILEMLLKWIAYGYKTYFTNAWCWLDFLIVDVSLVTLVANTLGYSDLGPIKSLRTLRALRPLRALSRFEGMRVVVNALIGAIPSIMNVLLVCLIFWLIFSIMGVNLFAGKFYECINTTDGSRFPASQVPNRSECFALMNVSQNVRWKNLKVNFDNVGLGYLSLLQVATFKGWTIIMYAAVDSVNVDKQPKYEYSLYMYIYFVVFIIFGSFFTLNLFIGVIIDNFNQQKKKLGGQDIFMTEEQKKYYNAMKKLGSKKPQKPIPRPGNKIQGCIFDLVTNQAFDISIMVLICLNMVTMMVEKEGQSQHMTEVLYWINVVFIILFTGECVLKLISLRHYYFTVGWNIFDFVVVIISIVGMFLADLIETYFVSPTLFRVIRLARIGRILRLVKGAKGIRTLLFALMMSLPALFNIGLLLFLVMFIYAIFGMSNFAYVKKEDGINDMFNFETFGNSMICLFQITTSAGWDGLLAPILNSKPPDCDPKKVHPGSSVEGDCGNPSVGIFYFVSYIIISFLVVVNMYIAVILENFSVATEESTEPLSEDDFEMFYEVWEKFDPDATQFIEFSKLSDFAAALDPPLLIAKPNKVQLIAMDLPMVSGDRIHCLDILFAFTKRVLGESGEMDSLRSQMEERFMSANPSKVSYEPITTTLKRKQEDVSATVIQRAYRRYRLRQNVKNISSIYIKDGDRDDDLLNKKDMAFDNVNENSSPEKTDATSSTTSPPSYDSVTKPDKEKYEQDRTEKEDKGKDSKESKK
# Method: as §1
# as §2, with “Peptides were screened in duplicate at final concentrations of 20 μM and 200 nM, as determined by amino acid analysis, and diluted into HEPES buffered physiological saline (HBPS).” left out
# as §3, §4
# NR2A = molecular target: T12, NR2A (Homo sapiens, UniProt Q12879); assay: Ion channel panel (IonWorks Barracuda): NR2A; assay type: cell-based; settings: 100% = no change, <100% = inhibition
# T12 construct: host or cells: HEK293 or CHO
# Method: as §1, §2, §3, §4
# NR2B = molecular target: T13, NR2B (Homo sapiens, UniProt Q13224); assay: Ion channel panel (IonWorks Barracuda): NR2B; assay type: cell-based; settings: 100% = no change, <100% = inhibition
# T13 construct: host or cells: HEK293 or CHO
# Method: as §1, §2, §3, §4
# TRPA1 = molecular target: T14, TRPA1 (Homo sapiens, UniProt O75762); assay: Ion channel panel (IonWorks Barracuda): TRPA1; assay type: cell-based; settings: 100% = no change, <100% = inhibition
# T14 construct: host or cells: HEK293 or CHO
# Method: as §1, §2, §3, §4
# TRPV1 = molecular target: T15, TRPV1 (Homo sapiens, UniProt Q8NER1); assay: Ion channel panel (IonWorks Barracuda): TRPV1; assay type: cell-based; settings: 100% = no change, <100% = inhibition
# T15 construct: host or cells: HEK293 or CHO
# Method: as §1, §2, §3, §4
# [1] = first of two Nav1.5 columns (probably TP1)
# [2] = second of two Nav1.5 columns (probably TP2)
# [3] = first of two Nav1.7 columns (probably TP1)
# [4] = second of two Nav1.7 columns (probably TP2)
substance,measurement,setting,value
6 (GSVRIPVSCKHSGQCLKPCKDAGMRFGKCMNGKCDCTPK) [compound 6],Activity of 5HT3a with peptide (percentage of the reference compound),5HT3a,84%
same,"Activity of 5HT3a with peptide, expressed as a percentage of the reference compound",5HT3a,85%
same,"Activity of a3b4 with peptide, expressed as a percentage of the reference compound",α3β4; peptide at 0.2 μM,100%
same,Activity of a3b4 with peptide (percentage of the reference compound),α3β4; peptide at 20 μM,95%
same,"Activity of a4b2 with peptide, expressed as a percentage of the reference compound",α4β2; peptide at 0.2 μM,71%
same,Activity of a4b2 with peptide (percentage of the reference compound),α4β2; peptide at 20 μM,96%
same,"Activity of Cav2.1 with peptide, expressed as a percentage of the reference compound",Cav2.1; peptide at 0.2 μM,109%
same,Activity of Cav2.1 with peptide (percentage of the reference compound),Cav2.1; peptide at 20 μM,111%
same,"Activity of Cav2.2 with peptide, expressed as a percentage of the reference compound",Cav2.2; peptide at 0.2 μM,103%
same,Activity of Cav2.2 with peptide (percentage of the reference compound),Cav2.2; peptide at 20 μM,107%
same,"Activity of Kv2.1 with peptide, expressed as a percentage of the reference compound",Kv2.1; peptide at 0.2 μM,103%
same,Activity of Kv2.1 with peptide (percentage of the reference compound),Kv2.1; peptide at 20 μM,124%
same,"Activity of GABA with peptide, expressed as a percentage of the reference compound",GABA; peptide at 0.2 μM,104%
same,Activity of GABA with peptide (percentage of the reference compound),GABA; peptide at 20 μM,96%
same,"Activity of Nav1.5 with peptide, expressed as a percentage of the reference compound",Nav1.5; [1],105%
same,"Activity of Nav1.5 with peptide, expressed as a percentage of the reference compound",Nav1.5; [2],104%
same,Activity of Nav1.5 with peptide (percentage of the reference compound),Nav1.5; [1],116%
same,Activity of Nav1.5 with peptide (percentage of the reference compound),Nav1.5; [2],120%
same,"Activity of hERG with peptide, expressed as a percentage of the reference compound",hERG; peptide at 0.2 μM,107%
same,Activity of hERG with peptide (percentage of the reference compound),hERG; peptide at 20 μM,71%
same,"Activity of Kir2.1 with peptide, expressed as a percentage of the reference compound",Kir2.1; peptide at 0.2 μM,96%
same,Activity of Kir2.1 with peptide (percentage of the reference compound),Kir2.1; peptide at 20 μM,94%
same,"Activity of Kv1.1 with peptide, expressed as a percentage of the reference compound",Kv1.1; peptide at 0.2 μM,96%
same,Activity of Kv1.1 with peptide (percentage of the reference compound),Kv1.1; peptide at 20 μM,30%
same,"Activity of Kv1.2 with peptide, expressed as a percentage of the reference compound",Kv1.2; peptide at 0.2 μM,81%
same,Activity of Kv1.2 with peptide (percentage of the reference compound),Kv1.2; peptide at 20 μM,85%
same,"Activity of Kv1.3 with peptide, expressed as a percentage of the reference compound",Kv1.3; peptide at 0.2 μM,25%
same,Activity of Kv1.3 with peptide (percentage of the reference compound),Kv1.3; peptide at 20 μM,0%
same,"Activity of Nav1.7 with peptide, expressed as a percentage of the reference compound",Nav1.7; [3],98%
same,"Activity of Nav1.7 with peptide, expressed as a percentage of the reference compound",Nav1.7; [4],95%
same,Activity of Nav1.7 with peptide (percentage of the reference compound),Nav1.7; [3],116%
same,Activity of Nav1.7 with peptide (percentage of the reference compound),Nav1.7; [4],119%
same,"Activity of NR2A with peptide, expressed as a percentage of the reference compound",NR2A; peptide at 0.2 μM,86%
same,Activity of NR2A with peptide (percentage of the reference compound),NR2A; peptide at 20 μM,88%
same,"Activity of NR2B with peptide, expressed as a percentage of the reference compound",NR2B; peptide at 0.2 μM,92%
same,Activity of NR2B with peptide (percentage of the reference compound),NR2B; peptide at 20 μM,75%
same,"Activity of TRPA1 with peptide, expressed as a percentage of the reference compound",TRPA1; peptide at 0.2 μM,126%
same,Activity of TRPA1 with peptide (percentage of the reference compound),TRPA1; peptide at 20 μM,92%
same,"Activity of TRPV1 with peptide, expressed as a percentage of the reference compound",TRPV1; peptide at 0.2 μM,86%
same,Activity of TRPV1 with peptide (percentage of the reference compound),TRPV1; peptide at 20 μM,98%
